Source: article PMC2889927

Molecular target: lactosylceramide-loaded recombinant human CD1d complex (human) (UniProt P15813)
Assay: SPR

Sequence of recombinant soluble iNKT TCR 4C1369 (Vα24/Vβ11 heterodimer) (A0A0B4J240 whole entry, looked up, tested part not stated, one chain of several): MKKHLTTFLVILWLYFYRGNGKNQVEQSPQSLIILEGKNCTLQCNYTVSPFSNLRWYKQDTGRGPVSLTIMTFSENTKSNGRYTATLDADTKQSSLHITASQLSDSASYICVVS
Sequence of lactosylceramide-loaded recombinant human CD1d complex (human) (P15813 20-335, one chain of several): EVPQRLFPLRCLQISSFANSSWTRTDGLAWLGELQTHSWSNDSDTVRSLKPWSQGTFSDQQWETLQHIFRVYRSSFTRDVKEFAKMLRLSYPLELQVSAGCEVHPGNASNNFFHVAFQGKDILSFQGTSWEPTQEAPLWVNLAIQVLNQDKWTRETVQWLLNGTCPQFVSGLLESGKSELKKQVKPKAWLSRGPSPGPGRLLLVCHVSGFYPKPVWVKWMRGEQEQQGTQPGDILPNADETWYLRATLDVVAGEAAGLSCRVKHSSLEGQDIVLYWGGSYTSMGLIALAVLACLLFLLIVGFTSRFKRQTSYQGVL

Kd: 2.03 µM
Substance: recombinant soluble iNKT TCR 4C1369 (Vα24/Vβ11 heterodimer) (from UniProt A0A0B4J240)
